Experimental data from patent US20110300100A1 (CSL, published 2011).
Where a chain is given by its changes, count along the chain named. Numbers in names are those of the source.

How the values were obtained:
[1] = target: T1, mIL-11Rα-Fc (murine, UniProt Q64385 24-372); experiment: competition ELISA, soluble protein against phage displayed IL-11 variants on coated mIL-11Rα-Fc
T1 construct: Coated on the ELISA plates; not shown: Fc part of the bought fusion protein
T1 sequence (looked up): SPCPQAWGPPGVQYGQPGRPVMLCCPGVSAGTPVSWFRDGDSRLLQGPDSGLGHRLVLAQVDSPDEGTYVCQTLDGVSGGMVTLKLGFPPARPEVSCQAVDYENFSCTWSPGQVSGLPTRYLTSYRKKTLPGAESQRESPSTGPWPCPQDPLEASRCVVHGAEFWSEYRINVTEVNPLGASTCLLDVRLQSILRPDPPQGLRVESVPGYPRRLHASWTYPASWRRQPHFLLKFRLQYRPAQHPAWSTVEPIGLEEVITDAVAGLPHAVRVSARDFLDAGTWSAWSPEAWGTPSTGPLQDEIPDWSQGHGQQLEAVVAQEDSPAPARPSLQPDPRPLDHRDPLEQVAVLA
Protocol: The affinity of the selected IL-11 mutants for IL-11Rα was determined in a competition ELISA experiment. […] After incubation for 2 hours at room temperature, the plates were washed and bound phage were then labeled with an anti-M13 polyclonal antibody conjugated to horseradish peroxidase. After the removal of excess antibody by washing with PBS containing 0.05% Tween 20, TMB substrate was added to each well and incubated for 10 minutes before the reaction was quenched by the addition of 2M phosphoric acid. Absorbance at 450 nm was then determined for each well by analysis on a microtitre plate reader.
Clear differences were observed between the affinities of the mIL-11-W147A and mutant proteins for binding to IL-11Rα-Fc.

[2] = target: T2, wild-type murine IL-11Rα on stably transfected Ba/F3 cells (with co-receptor murine gp130) (murine, UniProt Q64385 24-432); experiment: cell-based or functional assay
T2 sequence (looked up): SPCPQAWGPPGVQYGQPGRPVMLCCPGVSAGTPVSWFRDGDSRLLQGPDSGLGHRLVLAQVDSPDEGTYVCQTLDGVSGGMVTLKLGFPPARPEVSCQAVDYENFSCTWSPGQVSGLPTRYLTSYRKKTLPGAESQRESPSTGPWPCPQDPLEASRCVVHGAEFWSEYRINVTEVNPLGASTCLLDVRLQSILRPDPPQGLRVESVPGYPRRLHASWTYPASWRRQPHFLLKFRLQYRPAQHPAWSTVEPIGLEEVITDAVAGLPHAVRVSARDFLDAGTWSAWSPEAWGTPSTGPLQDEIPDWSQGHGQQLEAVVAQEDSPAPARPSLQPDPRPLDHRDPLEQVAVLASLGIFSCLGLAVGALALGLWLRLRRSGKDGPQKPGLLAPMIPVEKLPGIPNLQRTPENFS

[3] = target: T2, wild-type murine IL-11Rα on stably …; experiment: cell-based or functional assay; remark: listed apart in the source
[4] = target: T1, mIL-11Rα-Fc; experiment: IL-11Rα binding ELISA

B1: IL-11 mutant 1B.382 (murine FMQIQ and W147A IL-11 mutein), N-terminal hexahistidine-tagged (ligand)
chain: PGPPAGSPRVSSDPRADLDSAVLLTRSLLADTRQLAAQMRDKFPADGDHSLDSLPTLFMQIQTLGSLQLPGVLTRLRVDLMSYLRHVQWLRRAGGPSLKTLEPELGALQARLERLLRRLQLLMSRLALPQAAPDQPVIPLGPPASAAGSIRAAHAILGGLHLTLDWAVRGLLLLKTRL
notes: Mutein of mature murine IL-11 with FMQIQ at 58-62 and W147A; also called clone 1B.382; not shown: N-terminal hexahistidine tag from the modified pET15b vector
fold higher affinity relative to W147A IL-11 [1]: 20 fold
IC50 (nM), inhibition of IL-11-induced proliferation of IL-11Rα/gp130 Ba/F3 cells (MTT) [2]: 0.49 nM

B2: mIL-11-W147A, N-terminal hexahistidine-tagged (ligand, not shown: small tags and cut ends)
chain: B1 chain with F58A, Q60S, I61A, Q62G
IC50 (nM), inhibition of IL-11-induced proliferation of IL-11Rα/gp130 Ba/F3 cells (MTT) [2]: 14 nM

B3: IL-11 mutant 1.21 (murine PAIDY and W147A IL-11 mutein), N-terminal hexahistidine-tagged (ligand)
chain: B1 chain with F58P, M59A, Q60I, I61D, Q62Y
notes: Mutein of mature murine IL-11 with PAIDY at 58-62 and W147A; not shown: N-terminal hexahistidine tag from the modified pET15b vector
fold higher affinity relative to W147A IL-11 [1]: 20 fold
IC50 (nM), inhibition of IL-11-induced proliferation of IL-11Rα/gp130 Ba/F3 cells (MTT) [2]: 0.54 nM

B4: Δ1.21 (PEGylated and truncated modified form of clone 1.21, W147C, amino acids 10-178 of SEQ ID NO:12) (ligand)
chain: VSSDPRADLDSAVLLTRSLLADTRQLAAQMRDKFPADGDHSLDSLPTLPAIDYTLGSLQLPGVLTRLRVDLMSYLRHVQWLRRAGGPSLKTLEPELGALQARLERLLRRLQLLMSRLALPQAAPDQPVIPLGPPASACGSIRAAHAILGGLHLTLDWAVRGLLLLKTRL
modifications: 40 kDa mPEG2-maleimide on Cys147 (position corresponding to position 147 of SEQ ID NO:12)
notes: His-tag and first nine residues (which carried the optimized thrombin site, residues 6 and 7 to L and V) removed by thrombin; N-terminus Val10-Ser11-Ser12; also called PEGylated mutein; pegylated mouse IL-11 mutein Δ1.21
fold reduction of the ability to antagonize IL-11-induced Ba/F3 cell proliferation, relative to non-PEGylated 1.21 [3]: ~10 fold
fold reduction of binding affinity relative to non-PEGylated 1.21 [4]: ~5 fold
